From the supplement of paper PMC5998384

How the values were obtained:
HeLa Kyoto [1] = assay: solubility in G1/S (NP-40 vs SDS abundance) (log2 ratio); higher = more soluble; details: cell cycle stage: G1/S
HeLa Kyoto [2] = assay: melting temperature (median over replicates), in situ; higher = more thermally stable
HeLa Kyoto [3] = assay: solubility change mitosis vs G1/S (difference of NP-40 vs SDS log2 ratios) (log2 ratio difference); higher = more soluble in mitosis
HeLa Kyoto [4] = assay: thermal stability score vs G1/S (z-score of summed log2 fold changes over temperatures); higher = more thermally stable than in G1/S
[5] = cell cycle stage: early G1 (4.5 h after nocodazole release)
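Throughout, for melting temperature (median over replicates), in situ: HeLa Kyoto cells synchronized by double thymidine or nocodazole block, proteins quantified by TMT10plex mass spectrometry, three independent biological replicates.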
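Throughout, for solubility change mitosis vs G1/S (difference of NP-40 vs SDS log2 ratios): synchronized HeLa Kyoto cells (double thymidine block for G1/S, nocodazole release for mitosis), protein amounts in NP-40 versus SDS lysates quantified by mass spectrometry, three biological replicates.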
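Throughout, for solubility in G1/S (NP-40 vs SDS abundance): HeLa Kyoto cells arrested at G1/S by double thymidine block, proteins quantified by TMT10plex mass spectrometry in mild NP-40 versus SDS extracts, three biological replicates.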
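Throughout, for thermal stability score vs G1/S (z-score of summed log2 fold changes over temperatures): synchronized HeLa Kyoto cells, proteins quantified by TMT10plex mass spectrometry, three biological replicates, mitosis taken 0.5 h after nocodazole release, G1/S directly after double thymidine block.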

| Sequence | solubility in G1/S (log2) (HeLa Kyoto [1]) | melting temperature (HeLa Kyoto [2]; cell cycle stage: G1/S) | solubility change mitosis (log2) (HeLa Kyoto [3]) | thermal stability score (HeLa Kyoto [4]; [5]) | thermal stability score (HeLa Kyoto [4]; cell cycle stage: mitosis) | melting temperature (HeLa Kyoto [2]; cell cycle stage: mitosis) |
| --- | --- | --- | --- | --- | --- | --- |
| MERAISPGLLVRALLLLLLLLGLAARTVAAGRARGLPAPTAEAAFGLGAAAAPTSATRVPAAGAVAAAEVTVEDAEALPAAAGEQEPRGPEPDDETELRPRGRSLVIISTLDGRIAALDPENHGKKQWDLDVGSGSLVSSSLSKPEVFGNKMIIPSLDGALFQWDQDRESMETVPFTVESLLESSYKFGDDVVLVGGKSLTTYGLSAYSGKVRYICSALGCRQWDSDEMEQEEDILLLQRTQKTVRAVGPRSGNEKWNFSVGHFELRYIPDMETRAGFIESTFKPNENTEESKIISDVEEQEAAIMDIVIKVSVADWKVMAFSKKGGHLEWEYQFCTPIASAWLLKDGKVIPISLFDDTSYTSNDDVLEDEEDIVEAARGATENSVYLGMYRGQLYLQSSVRISEKFPSSPKALESVTNENAIIPLPTIKWKPLIHSPSRTPVLVGSDEFDKCLSNDKFSHEEYSNGALSILQYPYDNGYYLPYYKRERNKRSTQITVRFLDNPHYNKNIRKKDPVLLLHWWKEIVATILFCIIATTFIVRRLFHPHPHRQRKESETQCQTENKYDSVSGEANDSSWNDIKNSGYISRYLTDFEPIQCLGRGGFGVVFEAKNKVDDCNYAIKRIRLPNRELAREKVMREVKALAKLEHPGIVRYFNAWLEAPPEKWQEKMDEIWLKDESTDWPLSSPSPMDAPSVKIRRMDPFATKEHIEIIAPSPQRSRSFSVGISCDQTSSSESQFSPLEFSGMDHEDISESVDAAYNLQDSCLTDCDVEDGTMDGNDEGHSFELCPSEASPYVRSRERTSSSIVFEDSGCDNASSKEEPKTNRLHIGNHCANKLTAFKPTSSKSSSEATLSISPPRPTTLSLDLTKNTTEKLQPSSPKVYLYIQMQLCRKENLKDWMNGRCTIEERERSVCLHIFLQIAEAVEFLHSKGLMHRDLKPSNIFFTMDDVVKVGDFGLVTAMDQDEEEQTVLTPMPAYARHTGQVGTKLYMSPEQIHGNSYSHKVDIFSLGLILFELLYPFSTQMERVRTLTDVRNLKFPPLFTQKYPCEYVMVQDMLSPSPMERPEAINIIENAVFEDLDFPGKTVLRQRSRSLSSSGTKHSRQSNNSHSPLPSN [EIF2AK3] | 0.0589 | 51 °C | -0.0251 | -0.111 | 0.409 | – |
| MERASLIQKAKLAEQAERYEDMAAFMKGAVEKGEELSCEERNLLSVAYKNVVGGQRAAWRVLSSIEQKSNEEGSEEKGPEVREYREKVETELQGVCDTVLGLLDSHLIKEAGDAESRVFYLKMKGDYYRYLAEVATGDDKKRIIDSARSAYQEAMDISKKEMPPTNPIRLGLALNFSVFHYEIANSPEEAISLAKTTFDEAMADLHTLSEDSYKDSTLIMQLLRDNLTLWTADNAGEEGGEAPQEPQS [SFN] | 0.311 | 52.6 °C | 0.358 | -2.86 | -2.25 | 53.1 °C |
| MERSPGEGPSPSPMDQPSAPSDPTDQPPAAHAKPDPGSGGQPAGPGAAGEALAVLTSFGRRLLVLIPVYLAGAVGLSVGFVLFGLALYLGWRRVRDEKERSLRAARQLLDDEEQLTAKTLYMSHRELPAWVSFPDVEKAEWLNKIVAQVWPFLGQYMEKLLAETVAPAVRGSNPHLQTFTFTRVELGEKPLRIIGVKVHPGQRKEQILLDLNISYVGDVQIDVEVKKYFCKAGVKGMQLHGVLRVILEPLIGDLPFVGAVSMFFIRRPTLDINWTGMTNLLDIPGLSSLSDTMIMDSIAAFLVLPNRLLVPLVPDLQDVAQLRSPLPRGIIRIHLLAARGLSSKDKYVKGLIEGKSDPYALVRLGTQTFCSRVIDEELNPQWGETYEVMVHEVPGQEIEVEVFDKDPDKDDFLGRMKLDVGKVLQASVLDDWFPLQGGQGQVHLRLEWLSLLSDAEKLEQVLQWNWGVSSRPDPPSAAILVVYLDRAQDLPLKKGNKEPNPMVQLSIQDVTQESKAVYSTNCPVWEEAFRFFLQDPQSQELDVQVKDDSRALTLGALTLPLARLLTAPELILDQWFQLSSSGPNSRLYMKLVMRILYLDSSEICFPTVPGCPGAWDVDSENPQRGSSVDAPPRPCHTTPDSQFGTEHVLRIHVLEAQDLIAKDRFLGGLVKGKSDPYVKLKLAGRSFRSHVVREDLNPRWNEVFEVIVTSVPGQELEVEVFDKDLDKDDFLGRCKVRLTTVLNSGFLDEWLTLEDVPSGRLHLRLERLTPRPTAAELEEVLQVNSLIQTQKSAELAAALLSIYMERAEDLPLRKGTKHLSPYATLTVGDSSHKTKTISQTSAPVWDESASFLIRKPHTESLELQVRGEGTGVLGSLSLPLSELLVADQLCLDRWFTLSSGQGQVLLRAQLGILVSQHSGVEAHSHSYSHSSSSLSEEPELSGGPPHITSSAPELRQRLTHVDSPLEAPAGPLGQVKLTLWYYSEERKLVSIVHGCRSLRQNGRDPPDPYVSLLLLPDKNRGTKRRTSQKKRTLSPEFNERFEWELPLDEAQRRKLDVSVKSNSSFMSRERELLGKVQLDLAETDLSQGVARWYDLMDNKDKGSS [ESYT1] | 0.0161 | 49.1 °C | -0.113 | 2.16 | 4.68 | 50.1 °C |
| MESAGLEQLLRELLLPDTERIRRATEQLQIVLRAPAALPALCDLLASAADPQIRQFAAVLTRRRLNTRWRRLAAEQRESLKSLILTALQRETEHCVSLSLAQLSATIFRKEGLEAWPQLLQLLQHSTHSPHSPEREMGLLLLSVVVTSRPEAFQPHHRELLRLLNETLGEVGSPGLLFYSLRTLTTMAPYLSTEDVPLARMLVPKLIMAMQTLIPIDEAKACEALEALDELLESEVPVITPYLSEVLTFCLEVARNVALGNAIRIRILCCLTFLVKVKSKALLKNRLLPPLLHTLFPIVAAEPPPGQLDPEDQDSEEEELEIELMGETPKHFAVQVVDMLALHLPPEKLCPQLMPMLEEALRSESPYQRKAGLLVLAVLSDGAGDHIRQRLLPPLLQIVCKGLEDPSQVVRNAALFALGQFSENLQPHISSYSREVMPLLLAYLKSVPLGHTHHLAKACYALENFVENLGPKVQPYLPELMECMLQLLRNPSSPRAKELAVSALGAIATAAQASLLPYFPAIMEHLREFLLTGREDLQPVQIQSLETLGVLARAVGEPMRPLAEECCQLGLGLCDQVDDPDLRRCTYSLFAALSGLMGEGLAPHLEQITTLMLLSLRSTEGIVPQYDGSSSFLLFDDESDGEEEEELMDEDVEEEDDSEISGYSVENAFFDEKEDTCAAVGEISVNTSVAFLPYMESVFEEVFKLLECPHLNVRKAAHEALGQFCCALHKACQSCPSEPNTAALQAALARVVPSYMQAVNRERERQVVMAVLEALTGVLRSCGTLTLKPPGRLAELCGVLKAVLQRKTACQDTDEEEEEEDDDQAEYDAMLLEHAGEAIPALAAAAGGDSFAPFFAGFLPLLVCKTKQGCTVAEKSFAVGTLAETIQGLGAASAQFVSRLLPVLLSTAQEADPEVRSNAIFGMGVLAEHGGHPAQEHFPKLLGLLFPLLARERHDRVRDNICGALARLLMASPTRKPEPQVLAALLHALPLKEDLEEWVTIGRLFSFLYQSSPDQVIDVAPELLRICSLILADNKIPPDTKAALLLLLTFLAKQHTDSFQAALGSLPVDKAQELQAVLGLS [IPO4] | -0.204 | 49.6 °C | -0.104 | 0.678 | 2.82 | 49.9 °C |
| MESEQLFHRGYYRNSYNSITSASSDEELLDGAGVIMDFQTSEDDNLLDGDTAVGTHYTMTNGGSINSSTHLLDLLDEPIPGVGTYDDFHTIDWVREKCKDRERHRRINSKKKESAWEMTKSLYDAWSGWLVVTLTGLASGALAGLIDIAADWMTDLKEGICLSALWYNHEQCCWGSNETTFEERDKCPQWKTWAELIIGQAEGPGSYIMNYIMYIFWALSFAFLAVSLVKVFAPYACGSGIPEIKTILSGFIIRGYLGKWTLMIKTITLVLAVASGLSLGKEGPLVHVACCCGNIFSYLFPKYSTNEAKKREVLSAASAAGVSVAFGAPIGGVLFSLEEVSYYFPLKTLWRSFFAALVAAFVLRSINPFGNSRLVLFYVEYHTPWYLFELFPFILLGVFGGLWGAFFIRANIAWCRRRKSTKFGKYPVLEVIIVAAITAVIAFPNPYTRLNTSELIKELFTDCGPLESSSLCDYRNDMNASKIVDDIPDRPAGIGVYSAIWQLCLALIFKIIMTVFTFGIKVPSGLFIPSMAIGAIAGRIVGIAVEQLAYYHHDWFIFKEWCEVGADCITPGLYAMVGAAACLGGVTRMTVSLVVIVFELTGGLEYIVPLMAAVMTSKWVGDAFGREGIYEAHIRLNGYPFLDAKEEFTHTTLAADVMRPRRNDPPLAVLTQDNMTVDDIENMINETSYNGFPVIMSKESQRLVGFALRRDLTIAIESARKKQEGIVGSSRVCFAQHTPSLPAESPRPLKLRSILDMSPFTVTDHTPMEIVVDIFRKLGLRQCLVTHNGRLLGIITKKDILRHMAQTANQDPASIMFN [CLCN3] | -0.354 | 54.9 °C | -0.0871 | -0.456 | -0.317 | 54.9 °C |
| MESMLNKLKSTVTKVTADVTSAVMGNPVTREFDVGRHIASGGNGLAWKIFNGTKKSTKQEVAVFVFDKKLIDKYQKFEKDQIIDSLKRGVQQLTRLRHPRLLTVQHPLEESRDCLAFCTEPVFASLANVLGNWENLPSPISPDIKDYKLYDVETKYGLLQVSEGLSFLHSSVKMVHGNITPENIILNKSGAWKIMGFDFCVSSTNPSEQEPKFPCKEWDPNLPSLCLPNPEYLAPEYILSVSCETASDMYSLGTVMYAVFNKGKPIFEVNKQDIYKSFSRQLDQLSRLGSSSLTNIPEEVREHVKLLLNVTPTVRPDADQMTKIPFFDDVGAVTLQYFDTLFQRDNLQKSQFFKGLPKVLPKLPKRVIVQRILPCLTSEFVNPDMVPFVLPNVLLIAEECTKEEYVKLILPELGPVFKQQEPIQILLIFLQKMDLLLTKTPPDEIKNSVLPMVYRALEAPSIQIQELCLNIIPTFANLIDYPSMKNALIPRIKNACLQTSSLAVRVNSLVCLGKILEYLDKWFVLDDILPFLQQIPSKEPAVLMGILGIYKCTFTHKKLGITKEQLAGKVLPHLIPLSIENNLNLNQFNSFISVIKEMLNRLESEHKTKLEQLHIMQEQQKSLDIGNQMNVSEEMKVTNIGNQQIDKVFNNIGADLLTGSESENKEDGLQNKHKRASLTLEEKQKLAKEQEQAQKLKSQQPLKPQVHTPVATVKQTKDLTDTLMDNMSSLTSLSVSTPKSSASSTFTSVPSMGIGMMFSTPTDNTKRNLTNGLNANMGFQTSGFNMPVNTNQNFYSSPSTVGVTKMTLGTPPTLPNFNALSVPPAGAKQTQQRPTDMSALNNLFGPQKPKVSMNQLSQQKPNQWLNQFVPPQGSPTMGSSVMGTQMNVIGQSAFGMQGNPFFNPQNFAQPPTTMTNSSSASNDLKDLFG [SCYL2] | 0.129 | 52.9 °C | -0.174 | 0.219 | 0.842 | 53.5 °C |
| MESPASSQPASMPQSKGKSKRKKDLRISCMSKPPAPNPTPPRNLDSRTFITIGDRNFEVEADDLVTISELGRGAYGVVEKVRHAQSGTIMAVKRIRATVNSQEQKRLLMDLDINMRTVDCFYTVTFYGALFREGDVWICMELMDTSLDKFYRKVLDKNMTIPEDILGEIAVSIVRALEHLHSKLSVIHRDVKPSNVLINKEGHVKMCDFGISGYLVDSVAKTMDAGCKPYMAPERINPELNQKGYNVKSDVWSLGITMIEMAILRFPYESWGTPFQQLKQVVEEPSPQLPADRFSPEFVDFTAQCLRKNPAERMSYLELMEHPFFTLHKTKKTDIAAFVKEILGEDS [MAP2K3] | -0.00226 | 48.8 °C | -0.112 | 1.81 | 2.08 | 50.1 °C |
